Columns and labels:
thrombin, BODIPY-labeled [1] = biological target: T1, thrombin, BODIPY-labeled (human, UniProt P00734;P00734 328-363;364-622); assay: single-particle fluorescence microscopy of coated microspheres
thrombin, BODIPY-labeled [2] = biological target: T1, thrombin, BODIPY-labeled; assay: single-particle fluorescence microscopy of aptamer-coated microspheres

| Binder | binding result (thrombin, BODIPY-labeled [1]) | binding result (thrombin, BODIPY-labeled [2]) |
| --- | --- | --- |
| CCAACCACAGTGTT (ssDNA, 3'-NH2) [NH2-com] | no binding |  |
| TTCACTGTGGTTGGTGTGGTTGG (structured_DNA, 5'-NH2) [ssTBA] |  | binds |
